# Results taken from patent US20250163145A1 (SHIONOGI, published 2025).
# Substitutions are numbered along the chain they refer to. Where no end group is shown, it is not given here.
# T1: Cys-hCE3C peptide (CQPKYEYSL), hCE3C peptide of human Nav1.7 with an added N-terminal Cys (human, also: biotin-labeled, site not given here)
# T1 construct: Residues 1424-1431 of human Nav1.7 (UniProtKB Q15858) plus an N-terminal Cys; also called immunogenic peptide; immunogen peptide
# T1 peptide: CQPKYEYSL
# T2: epitope peptide Cys-CE3C long (also: biotin label, site not given here)
# T2 peptide: CSVNVDKQPKYEYSL
# B1: mouse monoclonal antibody 15H11 (antibody, V domains shown)
# VH: EVQLQQSGPELLKPGASVKISCKASGYTFTDYNMHWVKQSHGRSLEWIGRINPKNGVINSNEKFKDKATLTVDKSLSTAYMDLRSLTSEDSAVYFCAPSYYGGNTDAYWGHGTLVTVSA
# VL: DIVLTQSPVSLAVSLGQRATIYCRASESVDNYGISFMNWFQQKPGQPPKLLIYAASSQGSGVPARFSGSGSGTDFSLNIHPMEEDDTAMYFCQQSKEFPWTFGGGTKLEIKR
# notes: Mouse hybridoma antibody; also called mouse 15H11
# B2: h15H11-50 (antibody, human IgG4 S228P, kappa, V domains shown)
# VH: QVQLVQSGSELKKPGASVKVSCKASGYTFTDYNMHWVRQAPGRSLEWMGRINPKNGVILSNEKFKDRFVFSLDTSVSTAYLQISSLKAEDTAVYYCAPSYYGGDDDAYWGQGTLVTVSS
# VL: DIVLTQSPASLAVSPGQRATITCRASDSVDNYGISFLNWFQQKPGQPPKLLIYAASSQGSGVPARFSGSGSGTDFTLTINPMEAIDTANYYCQQSKEFPWTFGGGTKVEIKR
# notes: hIgG4Pro/hIgK
# B3: h15H11-51 (antibody, human IgG4 S228P, kappa, V domains shown)
# VH: B2 VH
# VL: B2 VL with I85D
# notes: hIgG4Pro/hIgK
# B4: h15H11-48 (antibody, human IgG4 S228P, kappa, V domains shown)
# VH: B2 VH
# VL: B2 VL with I85L
# notes: hIgG4Pro/hIgK
# B5: h15H11-53 (antibody, human IgG4 S228P, kappa, V domains shown)
# VH: B2 VH
# VL: B2 VL with I85G
# notes: hIgG4Pro/hIgK
# B6: h15H11-54 (antibody, human IgG4 S228P, kappa, V domains shown)
# VH: B2 VH
# VL: B2 VL with I85N, D86P
# notes: hIgG4Pro/hIgK
# B7: h15H11-47 (antibody, human IgG4 S228P, kappa, V domains shown)
# VH: B2 VH
# VL: B2 VL with I85F
# notes: hIgG4Pro/hIgK
# B8: h15H11-52 (antibody, human IgG4 S228P, kappa, V domains shown)
# VH: B2 VH
# VL: B2 VL with I85R
# notes: hIgG4Pro/hIgK
# B9: h15H11-49 (antibody, human IgG4 S228P, kappa, V domains shown)
# VH: B2 VH
# VL: B2 VL with I85V
# notes: hIgG4Pro/hIgK
# B10: h15H11 heavy chain CDR mutant A101V (antibody, human IgG4 S228P, kappa, name in Kabat numbering, V domains shown)
# VH: B2 VH with L59N, D104N, D105T, A107V
# VL: B2 VL with D27E, L37M, I85N
# notes: hIgG4Pro/hIgK
# B11: h15H11 light chain CDR mutant P95G (antibody, human IgG4 S228P, kappa, name in Kabat numbering, V domains shown)
# VH: B2 VH with L59N, D104N, D105T
# VL: B2 VL with D27E, L37M, I85N, P99G
# notes: hIgG4Pro/hIgK
# B12: h15H11 light chain CDR mutant Q90N (antibody, human IgG4 S228P, kappa, name in Kabat numbering, V domains shown)
# VH: B2 VH with L59N, D104N, D105T
# VL: B2 VL with D27E, L37M, I85N, Q94N
# notes: hIgG4Pro/hIgK
# B13: h15H11 heavy chain CDR mutant M34L (antibody, human IgG4 S228P, kappa, name in Kabat numbering, V domains shown)
# VH: B2 VH with M34L, L59N, D104N, D105T
# VL: B2 VL with D27E, L37M, I85N
# notes: hIgG4Pro/hIgK
# B14: h15H11 light chain CDR mutant W96Y (antibody, human IgG4 S228P, kappa, name in Kabat numbering, V domains shown)
# VH: B2 VH with L59N, D104N, D105T
# VL: B2 VL with D27E, L37M, I85N, W100Y
# notes: hIgG4Pro/hIgK
# Biological target: T1, Cys-hCE3C peptide (CQPKYEYSL), hCE3C …
# Test: ELISA, hybridoma supernatant on anti-mouse IgG plate, biotin-labeled Cys-hCE3C + streptavidin-HRP
# Experimental: Three days after the final immunization, the spleen was removed, splenocytes and mouse myeloma cells (p3x6363-Ag8, Tokyo Oncology Institute) were fused by the PEG-method, and selection was made in a medium containing hypoxanthine, aminopterin and thymidine. Human Nav1.7-binding antibodies were identified by performing ELISA against immunogenic peptides using hybridoma culture supernatants. Specifically, hybridoma culture supernatant was added to an anti-mouse IgG antibody immobilized plate, washed twice with ELISA wash buffer, and biotin-labeled immunogenic peptide (Cys-hCE3C) and Streptavidin-HRP (manufactured by PIERCE) was added and reacted overnight at 4° C. After washing twice with ELISA wash buffer and developing color by adding TMB-Substrate Chromogen (manufactured by Thermo Fisher Scientific), the reaction was stopped with an equal volume of 0.5N sulfuric acid, and the absorbance at 450 nm was measured.
row,Binder,binding result
1,B1,binds

# Biological target: T2, epitope peptide Cys-CE3C long
# Test: competitive ELISA, unlabeled vs biotin-labeled peptide, antibody on anti-human IgG plate
# Experimental: (§1) A diluted solution of the obtained recombinant humanized antibody, a biotin-labeled immunogen peptide, and Streptavidin-HRP (manufactured by PIERCE) were added to an anti-human IgG antibody-immobilized plate, and reacted overnight at 4° C. […] Next, a recombinant human antibody at the dilution rate, a biotin-labeled immunogen peptide, and Streptavidin-HRP (manufactured by PIERCE) were added. At the same time, a dilution series of unlabeled immunogenic peptide was added and reacted overnight at 4° C. After washing twice with ELISA wash buffer, TMB-Substrate Chromogen (manufactured by Thermo Fisher Scientific) was added to develop color, the reaction was stopped with an equal amount of 0.5N sulfuric acid, and the absorbance at 450 nm was measured. The concentration of the unlabeled peptide which attenuated the signal of the biotin-labeled peptide by half was defined as the affinity (IC50).
# Mutants (h15H11-44 to 54) in which various mutations were introduced into the light chain human framework sequence of h15H11-2 (heavy chain variable region: IGHV7-4-1 Q43R, G44S, N58L, N100D, T100aD, R94P (SEQ ID NO: 33)/light chain variable region: IGKV7-3 E27D, M33L, Y36F, V78M (SEQ ID NO: 55)) produced in Example 7 were produced. Affinity evaluation was performed on the produced mutants by the method described in Example 5.
row,Binder,IC50
1,B2,0.55 nM
2,B3,0.63 nM
3,B4,0.51 nM
4,B5,0.55 nM
5,B6,0.72 nM
6,B7,0.53 nM
7,B8,0.5 nM
8,B9,0.62 nM

# Biological target: T2, epitope peptide Cys-CE3C long
# Test: competitive ELISA (Example 5)
# Experimental: as §1
row,Binder,binding result
1,B10,no binding (tested: below the detection limit)
2,B11,no binding (tested: below the detection limit)
3,B12,no binding (tested: below the detection limit)
4,B13,no binding (tested: below the detection limit)
5,B14,no binding (tested: below the detection limit)
